B1: Structural maintenance of chromosomes protein 6 (Homo sapiens), Q96SB8 (parent)
chain: MAKRKEENFSSPKNAKRPRQEELEDFDKDGDEDECKGTTLTAAEVGIIESIHLKNFMCHSMLGPFKFGSNVNFVVGNNGSGKSAVLTALIVGLGGRAVATNRGSSLKGFVKDGQNSADISITLRNRGDDAFKASVYGNSILIQQHISIDGSRSYKLKSATGSVVSTRKEELIAILDHFNIQVDNPVSVLTQEMSKQFLQSKNEGDKYKFFMKATQLEQMKEDYSYIMETKERTKEQIHQGEERLTELKRQCVEKEERFQSIAGLSTMKTNLESLKHEMAWAVVNEIEKQLNAIRDNIKIGEDRAARLDRKMEEQQVRLNEAEQKYKDIQDKLEKISEETNARAPECMALKADVVAKKRAYNEAEVLYNRSLNEYKALKKDDEQLCKRIEELKKSTDQSLEPERLERQKKISWLKERVKAFQNQENSVNQEIEQFQQAIEKDKEEHGKIKREELDVKHALSYNQRQLKELKDSKTDRLKRFGPNVPALLEAIDDAYRQGHFTYKPVGPLGACIHLRDPELALAIESCLKGLLQAYCCHNHADERVLQALMKRFYLPGTSRPPIIVSEFRNEIYDVRHRAAYHPDFPTVLTALEIDNAVVANSLIDMRGIETVLLIKNNSVARAVMQSQKPPKNCREAFTADGDQVFAGRYYSSENTRPKFLSRDVDSEISDLENEVENKTAQILNLQQHLSALEKDIKHNEELLKRCQLHYKELKMKIRKNISEIRELENIEEHQSVDIATLEDEAQENKSKMKMVEEHMEQQKENMEHLKSLKIEAENKYDAIKFKINQLSELADPLKDELNLADSEVDNQKRGKRHYEEKQKEHLDTLNKKKRELDMKEKELEEKMSQARQICPERIEVEKSASILDKEINRLRQKIQAEHASHGDREEIMRQYQEARETYLDLDSKVRTLKKFIKLLGEIMEHRFKTYQQFRRCLTLRCKLYFDNLLSQRAYCGKMNFDHKNETLSISVQPGEGNKAAFNDMRALSGGERSFSTVCFILSLWSIAESPFRCLDEFDVYMDMVNRRIAMDLILKMADSQRFRQFILLTPQSMSSLPSSKLIRILRMSDPERGQTTLPFRPVTQEEDDDQR
B2: Structural maintenance of chromosomes protein 5 (Schizosaccharomyces pombe (strain ATCC 38366 / 972)), O13710 (parent)
chain: MDGLRPSKRRKSNPLYSDYALGSIVRIKLVNFVTYDYCELFPGPYLNLIIGPNGTGKSTIVSAICIGLGWPPKLLGRAKEAREFIKYGKNTATIEIEMKYRDDETVTITRQISQDKSSSFSINREACATSSITSLMDTFNVQLNNLCHFLPQDRVAEFAQLDPYSRLMETERAIDHEGLLPAHEKLIDLRKREREILQNKNQGQSTLNSLKDRQQALEKEVNIFKEREKIKSYIEMLGLAKMLVIYREKTNVFNQLRADKKKLKKDLKDLVEEFQPILDKGEELRSDLKLKDDTFNDYSSASMELNTSNLRARASFSNFMENEKKLYEKVNTNRTLLRNANLTLNEAQQSVKSLTERQGPRPSDNGVQDLQEKMQEVNAEKLQHENEKLESSHELGSIRTLKAQKLIDLDNIKRELSYYNDATKRKLDFMSSAPGWEDAYQTYQLLKEYESAFEAPAYGPIYMNLKCKEKGFAALIEGFFRTDTFRTFIMSNYNDYLKLMDLITSKTKYTPTIREFSSERKKKIEDFEPPCSREKLQSFGFDGYVIDFLEGPEVVLVALCHMLKIHQIPIAKRELPPASVNALNNFRLANGDPVLKTYLAGSSIHLVFRSAYGDREITRRTDPLPSRSIYFSENVEMDLVKRKEEQLNAQLSQLENLQNEERKLQEKVNEHESLLSRTNDILSTLRKERDEKLIPIHEWQQLQERIEHQTLLLRQREKVPEQFAAEIEKNEDIRKENFEALMNSVLKVKENSIKATNNFEKMLGSRLNVIEAKYKLEKHEMDANQVNARLTEVQDRLKDITDKLASAREDAMSLYGSVVDSLQTQSSDRQTAITELNEEFATSSEVDNKISIEETKLKFMNVNSYVMEQYDARKKEIEELESKMSDFDQSVEELQDEMNSIKEDWVSKLEENVQCISDRFSKGMSGMGYAGEVRLGKSDDYDKWYIDILVQFREEEGLQKLTGQRQSGGERSVSTIMYLLSLQGLAIAPFRIVDEINQGMDPRNERVVHRHIVNSVCDNAVSQYFLVTPKLLPDLTYHRNLKVLCICNGAWLPATFRTSLSTYFEKLKKSALISSS
partner: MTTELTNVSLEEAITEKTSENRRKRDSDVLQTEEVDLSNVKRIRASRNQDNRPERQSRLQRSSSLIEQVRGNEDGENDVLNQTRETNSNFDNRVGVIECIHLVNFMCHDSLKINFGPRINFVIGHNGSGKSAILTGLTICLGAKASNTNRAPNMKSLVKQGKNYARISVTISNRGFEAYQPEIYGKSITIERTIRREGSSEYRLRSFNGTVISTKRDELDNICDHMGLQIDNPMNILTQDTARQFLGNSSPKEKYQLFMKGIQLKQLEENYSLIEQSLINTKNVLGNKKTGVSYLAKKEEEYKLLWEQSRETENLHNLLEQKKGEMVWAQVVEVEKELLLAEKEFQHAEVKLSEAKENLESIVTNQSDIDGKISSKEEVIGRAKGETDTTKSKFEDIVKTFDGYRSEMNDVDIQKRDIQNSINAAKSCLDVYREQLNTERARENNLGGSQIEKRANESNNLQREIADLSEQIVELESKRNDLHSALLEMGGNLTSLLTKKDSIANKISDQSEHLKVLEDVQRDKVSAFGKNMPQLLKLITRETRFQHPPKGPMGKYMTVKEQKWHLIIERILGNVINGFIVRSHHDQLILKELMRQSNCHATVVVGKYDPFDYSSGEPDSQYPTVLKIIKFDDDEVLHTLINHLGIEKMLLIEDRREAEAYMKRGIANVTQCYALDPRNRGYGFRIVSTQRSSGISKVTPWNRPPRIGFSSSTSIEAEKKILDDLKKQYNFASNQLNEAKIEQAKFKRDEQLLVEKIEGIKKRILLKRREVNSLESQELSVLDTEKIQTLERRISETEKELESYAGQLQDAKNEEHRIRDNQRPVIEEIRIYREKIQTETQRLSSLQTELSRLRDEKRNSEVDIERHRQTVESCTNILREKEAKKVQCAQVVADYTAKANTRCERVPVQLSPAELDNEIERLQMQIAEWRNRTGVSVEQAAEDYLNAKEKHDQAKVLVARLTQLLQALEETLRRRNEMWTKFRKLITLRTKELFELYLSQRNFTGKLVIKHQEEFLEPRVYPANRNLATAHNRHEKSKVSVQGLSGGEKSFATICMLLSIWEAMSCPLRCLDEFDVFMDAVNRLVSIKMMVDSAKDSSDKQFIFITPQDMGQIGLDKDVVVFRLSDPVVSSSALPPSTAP

Variants of: B1
Details: with smc5_human SMC5, Q8IY18
Chain of smc5_human SMC5, Q8IY18 (Q8IY18 whole entry): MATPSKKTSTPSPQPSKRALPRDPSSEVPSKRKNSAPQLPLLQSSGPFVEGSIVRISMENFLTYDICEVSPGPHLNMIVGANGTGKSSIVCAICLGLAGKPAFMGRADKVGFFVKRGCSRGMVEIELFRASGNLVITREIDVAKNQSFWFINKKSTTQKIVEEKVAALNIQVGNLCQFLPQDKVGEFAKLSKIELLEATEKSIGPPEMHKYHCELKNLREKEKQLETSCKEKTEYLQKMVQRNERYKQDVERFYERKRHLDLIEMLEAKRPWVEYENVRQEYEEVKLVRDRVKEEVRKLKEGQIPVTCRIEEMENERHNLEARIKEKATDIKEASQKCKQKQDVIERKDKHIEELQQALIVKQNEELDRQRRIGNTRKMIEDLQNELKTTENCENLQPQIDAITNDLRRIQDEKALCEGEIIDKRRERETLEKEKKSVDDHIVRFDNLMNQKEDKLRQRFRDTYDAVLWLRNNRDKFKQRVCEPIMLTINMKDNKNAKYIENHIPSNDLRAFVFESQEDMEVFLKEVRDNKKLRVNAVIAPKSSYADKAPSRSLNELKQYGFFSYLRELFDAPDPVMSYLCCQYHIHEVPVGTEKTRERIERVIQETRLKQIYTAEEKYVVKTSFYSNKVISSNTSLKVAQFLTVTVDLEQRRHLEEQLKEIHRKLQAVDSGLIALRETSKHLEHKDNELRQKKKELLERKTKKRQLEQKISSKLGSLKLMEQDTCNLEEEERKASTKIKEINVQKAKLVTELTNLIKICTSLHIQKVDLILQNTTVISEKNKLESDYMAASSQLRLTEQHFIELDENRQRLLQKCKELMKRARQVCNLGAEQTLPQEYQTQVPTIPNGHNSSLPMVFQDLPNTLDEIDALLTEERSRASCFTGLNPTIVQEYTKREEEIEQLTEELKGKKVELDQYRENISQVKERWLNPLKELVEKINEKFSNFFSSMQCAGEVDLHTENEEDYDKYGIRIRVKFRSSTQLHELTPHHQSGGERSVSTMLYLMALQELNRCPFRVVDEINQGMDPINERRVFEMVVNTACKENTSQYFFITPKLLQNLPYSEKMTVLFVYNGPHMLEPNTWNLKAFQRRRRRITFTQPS

Variant	effect of a mutation on the interaction
G506R	decreasing interaction

Variants of: B2
Details: with smc6_schpo smc6, P53692

Variant	effect of a mutation on the interaction
G540R	decreasing interaction
